Measurements: the RNAGym collection of RNA variant scans (doi:10.7554/elife.80360)

B1: CPEB3 Ribozyme (parent)
chain: GGGGGCCACAGCAGAAGCGUUCACGUCGCGGCCCCUGUCAGAUUCUGGUGAAUCUGCGAAUUCUGCUGU

Variants of: B1
Test: self-cleavage, relative activity (ratio to wild type); higher = more cleavage; co-transcriptional

Variant | self-cleavage
C32G C34G | 0.212
C32G C34A | 0.303
C32G G47U | 0.514
G31A C33G | 0.282
C32G A51G | 0.48
C32U C63G | 0.933
C32G U53G | 0.382
C32G U53C | 0.217
C32U C33G | 0.374
G31A U61C | 0.327
G31A A59G | 0.811
G31U A51U | 0.805
G31U A51C | 0.628
G30C U62C | 0.424
C32A G56C | 0.478
C32G G58C | 0.478
C32G G58U | 0.622
G31U U62A | 0.27
G31U C34U | 0.363
G31C G58C | 0.179
G31C G58U | 0.209
C32A C57A | 0.245
C33A | 0.916
G31U A59G | 0.514

Variant | self-cleavage
G31U A59C | 0.356
G31C C54U | 0.308
G31C C34A | 0.341
C32U C35U | 0.77
C32U C35A | 0.25
G31U G56C | 0.385
G31A G47A | 0.897
G31A G47C | 0.921
G31U C35A | 0.26
G31U C35U | 0.363
C32G C66A | 0.256
C32G C66U | 0.394
C32A C39G | 0.6
C32A U36G | 0.263
C32G C35U | 0.377
G30U G41C | 0.209
G30C C57A | 0.302
G30C C57U | 0.244
C32U U69A | 1.03
G30U G50C | 0.294
G30U G50U | 0.47
G30U G50A | 0.335
G31C U43A | 0.193
G31A C34G | 0.262

Variant | self-cleavage
G31A C34U | 0.605
G30C C63A | 0.292
G31U U49G | 0.421
G30U C35U | 0.292
G31U C45U | 0.789
G31U U55A | 0.428
G31A G41A | 0.525
C32A A51U | 0.566
C32A A51C | 0.391
C32G G41U | 0.328
C32G U36C | 0.215
C32G U36A | 0.255
G30C G56C | 0.236
G30C G56U | 0.404
G31U A60C | 0.291
C32U A51U | 0.982
C32U A51G | 1
G31C A51C | 0.161
G31C A51G | 0.364
G31C A51U | 0.237
G31A A52U | 0.888
G31A A52G | 0.907
G31U U36C | 0.516
C32A G37A | 0.263

Variant | self-cleavage
C32A G37U | 0.18
C32G U69A | 0.709
C32G U69G | 0.775
C32A U43G | 0.374
C32A U38A | 0.791
G31A G37U | 0.213
C32G G65U | 0.267
G30U U46G | 0.441
C32A G50U | 0.707
G31A U55A | 0.662
G31A U55C | 0.547
G31A U55G | 0.569
C32G C57A | 0.252
C32G C57U | 0.234
C32U G50C | 0.991
C32U A60C | 0.363
C32U A60U | 0.478
C32A A52G | 0.431
G31U C32A | 0.321
C33A A42C | 0.405
C33A A42G | 0.685
C33A A42U | 0.499
G31U U44A | 0.577
G31U U44G | 0.3

Variant | self-cleavage
G30U A40C | 0.192
G30U A40U | 0.214
G31C A40C | 0.203
G31C A40U | 0.165
G30U C57G | 0.186
C32U U49G | 1.01
C32U U49C | 1
G30U C34A | 0.259
G31A C32G | 0.259
C32G U61G | 0.342
C32G U61C | 0.285
C32A C66G | 0.708
C33A A52C | 0.582
G31U U61C | 0.258
G31A C63A | 0.32
G31U U67C | 0.939
C32U G37A | 0.288
C32U G37C | 0.241
C32G U64C | 0.311
C32A U49G | 0.626
C32A U44C | 0.482
G31C U53C | 0.237
G31C U53G | 0.139
G30U G65A | 0.203

Variant | self-cleavage
C33A A40U | 0.375
C33A A40C | 0.339
C32U C54G | 0.819
G31A U67G | 1.01
C32U U36A | 0.216
C32U U36C | 0.973
G30C G37U | 0.175
G30C G37C | 0.204
G30C G37A | 0.146
C32A G68C | 0.913
G31C U38A | 0.237
G30U C32G | 0.216
G30U C32U | 0.181
G31C U62C | 0.258
G31C U62A | 0.151
C32A U69A | 0.965
C32A U69G | 0.983
C32G A42G | 0.569
C32G A42U | 0.44
C32G A42C | 0.343
C32U U62C | 0.955
C32U U62A | 0.979
G31C G41U | 0.217
C32G C39A | 0.282

Variant | self-cleavage
C32G C39G | 0.389
C32A C34G | 0.228
C32A G65U | 0.418
C32A G65C | 0.459
G30C C34G | 0.259
C32G A59C | 0.243
G31U U69G | 1.02
C32G U55A | 0.268
C32U C57A | 0.339
G30U U64C | 0.353
C32G C54U | 0.594
G30C C33A | 0.248
G30C C33G | 0.302
G31A U64A | 0.511
G31A U64C | 0.757
C32U G47C | 0.97
C32U G47A | 0.971
C32A A42G | 0.448
G31A A60U | 0.322
G31A A60C | 0.304
C32U G65U | 0.806
C32U G41C | 0.858
C32U G41U | 0.856
